For the assay, the target named is labeled control protein (BSA) (UniProt P02769 25-607). The assay can be described thus: membrane-immobilized flagellin bait, biotinylated prey, streptavidin-HRP.

We go through 1 molecule from patent US20110206694A1 (UNIVERSITY OF TENNESSEE RESEARCH FOUNDATION, published 2011).

Chain of labeled control protein (BSA) (P02769 25-607 limits assumed): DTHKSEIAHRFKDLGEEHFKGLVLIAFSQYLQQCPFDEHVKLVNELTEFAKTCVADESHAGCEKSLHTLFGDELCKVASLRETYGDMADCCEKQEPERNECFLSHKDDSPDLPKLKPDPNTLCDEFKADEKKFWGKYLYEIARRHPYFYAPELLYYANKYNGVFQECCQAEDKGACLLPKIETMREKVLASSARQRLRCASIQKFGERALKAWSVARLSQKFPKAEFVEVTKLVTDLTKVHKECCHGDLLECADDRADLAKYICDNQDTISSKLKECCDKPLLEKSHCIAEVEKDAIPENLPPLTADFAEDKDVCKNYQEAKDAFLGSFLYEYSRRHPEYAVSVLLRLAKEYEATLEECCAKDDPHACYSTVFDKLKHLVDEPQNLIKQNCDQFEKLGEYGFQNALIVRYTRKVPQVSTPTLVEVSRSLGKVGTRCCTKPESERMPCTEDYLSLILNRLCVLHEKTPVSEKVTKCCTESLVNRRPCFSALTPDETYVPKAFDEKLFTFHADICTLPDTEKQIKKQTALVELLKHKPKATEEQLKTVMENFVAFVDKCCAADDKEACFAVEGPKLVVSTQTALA

B1: flagellin FliC, serotype H48, of E. coli K-12 (MG1655) (other)
chain: AQVINTNSLSLITQNNINKNQSALSSSIERLSSGLRINSAKDDAAGQAIANRFTSNIKGLTQAARNANDGISVAQTTEGALSEINNNLQRVRELTVQATTGTNSESDLSSIQDEIKSRLDEIDRVSGQTQFNGVNVLAKNGSMKIQVGANDNQTITIDLKQIDAKTLGLDGFSVKNNDTVTTSAPVTAFGATTTNNIKLTGITLSTEAATDTGGTNPASIEGVYTDNGNDYYAKITGGDNDGKYYAVTVANDGTVTMATGATANATVTDANTTKATTITSGGTPVQIDNTAGSATANLGAVSLVKLQDSKGNDTDTYALKDTNGNLYAADVNETTGAVSVKTITYTDSSGAASSPTAVKLGGDDGKTEVVDIDGKTYDSADLNGGNLQTGLTAGGEALTAVANGKTTDPLKALDDAIASVDKFRSSLGAVQNRLDSAVTNLNNTTTNLSEAQSRIQDADYATEVSNMSKAQIIQQAGNSVLAKANQVPQQVLSLLQG
notes: also called FliCH48; FliC (H48)
Regarding B1, the binding result is “no binding (tested: 10 µg/ml)”.
